Results as given in patent US7393670B2, “Tyrosyl-tRNA synthetase variants” (Japan Science and Technology Agency, priority 2001, dated 2008).

How the values were obtained:
[1] = Aminoacylation reaction, simplified Lloyd's method, inorganic phosphate detected with Biomol green; assay type: biochemical; parameters: key: ***: the aminoacylation reaction was detected by a microplate reader in the reaction at enzyme concentrations of 50 nM; **: 500 nM; *: 5 μM; the activity is high in the order of *** > ** > * > —; conditions: tyrosine 200 μM, 37° C. for 4 min
Description: (§1) In the first method, Lloyd's method (Nucleic Acids Research, 23:2886-2892, 1995) where inorganic phosphate produced by pyrophosphatase-drived hydrolysis of pyrophosphate which was one of the reaction products of the aminoacylation reactions was quantified was simplified, and the inorganic phosphate was detected using Biomol green (Funakoshi) to carry out the measurement of the aminoacylation reaction.
(§2) Amino acid concentrations were 200 μM and 1 mM for tyrosine and 3-iodotyrosine, respectively.
The method where the aminoacylation reaction is measured by quantifying inorganic phosphate produced by pyrophosphatase-drived hydrolysis of pyrophosphate which is one of reaction products of the aminoacylation has been described by Lloyd et al. (Nucleic Acids Research, 23:2886-2892, 1995). In one method of the invention, this method was simplified and the aminoacylation reaction was measured by the detection of inorganic phosphate using Biomol green (Funakoshi). […] To stop the reaction, 0.1 ml of Bio mol green was added. Absorbance of its supernatant was measured at 630 nm.

[2] = as above; assay type: biochemical; parameters: key: ***: the aminoacylation reaction was detected by a microplate reader in the reaction at enzyme concentrations of 50 nM; **: 500 nM; *: 5 μM; the activity is high in the order of *** > ** > * > —; conditions: 3-iodotyrosine 1 mM, 37° C. for 4 min
Description: as §1, §2
The method where the aminoacylation reaction is measured by quantifying inorganic phosphate produced by pyrophosphatase-drived hydrolysis of pyrophosphate which is one of reaction products of the aminoacylation has been described by Lloyd et al. (Nucleic Acids Research, 23:2886-2892, 1995). In one method of the invention, this method was simplified and the aminoacylation reaction was measured by the detection of inorganic phosphate using Biomol green (Funakoshi). Each enzyme obtained was incubated with 0.05 ml of the buffer B containing 1 mM ATP (Seikagaku Corporation), 30 μM purified crude tyrosyl-tRNA, and 100 μM tyrosine or 0.5 mM 3-iodotyrosine at 37° C. for one hour. To stop the reaction, 0.1 ml of Bio mol green was added. Absorbance of its supernatant was measured at 630 nm.

Molecule	Aminoacylation activity, Tyrosine ([1]; Table 2)	Aminoacylation activity, 3-iodotyrosine ([2]; Table 2)	Aminoacylation activity, Tyrosine ([1]; Table 3)	Aminoacylation activity, 3-iodotyrosine ([2]; Table 3)
37L: E. coli TyrRS variant: position 37 Leucine, position 195 Glutamine (protein, UniProt P0AGJ9 2-424, looked up, variant Y37L) Tyrosine--tRNA ligase: ASSNLIKQLQERGLVAQVTDEEALAERLAQGPIALLCGFDPTADSLHLGHLVPLLCLKRFQQAGHKPVALVGGATGLIGDPSFKAAERKLNTEETVQEWVDKIRKQVAPFLDFDCGENSAIAANNYDWFGNMNVLTFLRDIGKHFSVNQMINKEAVKQRLNREDQGISFTEFSYNLLQGYDFACLNKQYGVVLQIGGSDQWGNITSGIDLTRRLHQNQVFGLTVPLITKADGTKFGKTEGGAVWLDPKKTSPYKFYQFWINTADADVYRFLKFFTFMSIEEINALEEEDKNSGKAPRAQYVLAEQVTRLVHGEEGLQAAKRITECLFSGSLSALSEADFEQLAQDGVPMVEMEKGADLMQALVDSELQPSRGQARKTIASNAITINGEKQSDPEYFFKEEDRLFGRFTLLRRGKKNYCLICWK	***	***		
195N: E. coli TyrRS variant: position 37 Tyrosine, position 195 Asparagine (protein, UniProt P0AGJ9 2-424, looked up, variant Q195N) Tyrosine--tRNA ligase: ASSNLIKQLQERGLVAQVTDEEALAERLAQGPIALYCGFDPTADSLHLGHLVPLLCLKRFQQAGHKPVALVGGATGLIGDPSFKAAERKLNTEETVQEWVDKIRKQVAPFLDFDCGENSAIAANNYDWFGNMNVLTFLRDIGKHFSVNQMINKEAVKQRLNREDQGISFTEFSYNLLQGYDFACLNKQYGVVLNIGGSDQWGNITSGIDLTRRLHQNQVFGLTVPLITKADGTKFGKTEGGAVWLDPKKTSPYKFYQFWINTADADVYRFLKFFTFMSIEEINALEEEDKNSGKAPRAQYVLAEQVTRLVHGEEGLQAAKRITECLFSGSLSALSEADFEQLAQDGVPMVEMEKGADLMQALVDSELQPSRGQARKTIASNAITINGEKQSDPEYFFKEEDRLFGRFTLLRRGKKNYCLICWK	***	*		
195A: E. coli TyrRS variant: position 37 Tyrosine, position 195 Alanine (protein, UniProt P0AGJ9 2-424, looked up, variant Q195A) Tyrosine--tRNA ligase: ASSNLIKQLQERGLVAQVTDEEALAERLAQGPIALYCGFDPTADSLHLGHLVPLLCLKRFQQAGHKPVALVGGATGLIGDPSFKAAERKLNTEETVQEWVDKIRKQVAPFLDFDCGENSAIAANNYDWFGNMNVLTFLRDIGKHFSVNQMINKEAVKQRLNREDQGISFTEFSYNLLQGYDFACLNKQYGVVLAIGGSDQWGNITSGIDLTRRLHQNQVFGLTVPLITKADGTKFGKTEGGAVWLDPKKTSPYKFYQFWINTADADVYRFLKFFTFMSIEEINALEEEDKNSGKAPRAQYVLAEQVTRLVHGEEGLQAAKRITECLFSGSLSALSEADFEQLAQDGVPMVEMEKGADLMQALVDSELQPSRGQARKTIASNAITINGEKQSDPEYFFKEEDRLFGRFTLLRRGKKNYCLICWK	***	*		
195S: E. coli TyrRS variant: position 37 Tyrosine, position 195 Serine (protein, UniProt P0AGJ9 2-424, looked up, variant Q195S) Tyrosine--tRNA ligase: ASSNLIKQLQERGLVAQVTDEEALAERLAQGPIALYCGFDPTADSLHLGHLVPLLCLKRFQQAGHKPVALVGGATGLIGDPSFKAAERKLNTEETVQEWVDKIRKQVAPFLDFDCGENSAIAANNYDWFGNMNVLTFLRDIGKHFSVNQMINKEAVKQRLNREDQGISFTEFSYNLLQGYDFACLNKQYGVVLSIGGSDQWGNITSGIDLTRRLHQNQVFGLTVPLITKADGTKFGKTEGGAVWLDPKKTSPYKFYQFWINTADADVYRFLKFFTFMSIEEINALEEEDKNSGKAPRAQYVLAEQVTRLVHGEEGLQAAKRITECLFSGSLSALSEADFEQLAQDGVPMVEMEKGADLMQALVDSELQPSRGQARKTIASNAITINGEKQSDPEYFFKEEDRLFGRFTLLRRGKKNYCLICWK	***	*		
IS: E. coli TyrRS double variant: position 37 Isoleucine, position 195 Serine (protein, UniProt P0AGJ9 2-424, looked up, variant Y37I Q195S) Tyrosine--tRNA ligase: ASSNLIKQLQERGLVAQVTDEEALAERLAQGPIALICGFDPTADSLHLGHLVPLLCLKRFQQAGHKPVALVGGATGLIGDPSFKAAERKLNTEETVQEWVDKIRKQVAPFLDFDCGENSAIAANNYDWFGNMNVLTFLRDIGKHFSVNQMINKEAVKQRLNREDQGISFTEFSYNLLQGYDFACLNKQYGVVLSIGGSDQWGNITSGIDLTRRLHQNQVFGLTVPLITKADGTKFGKTEGGAVWLDPKKTSPYKFYQFWINTADADVYRFLKFFTFMSIEEINALEEEDKNSGKAPRAQYVLAEQVTRLVHGEEGLQAAKRITECLFSGSLSALSEADFEQLAQDGVPMVEMEKGADLMQALVDSELQPSRGQARKTIASNAITINGEKQSDPEYFFKEEDRLFGRFTLLRRGKKNYCLICWK			—	—
37I: E. coli TyrRS variant: position 37 Isoleucine, position 195 Glutamine (protein, UniProt P0AGJ9 2-424, looked up, variant Y37I) Tyrosine--tRNA ligase: ASSNLIKQLQERGLVAQVTDEEALAERLAQGPIALICGFDPTADSLHLGHLVPLLCLKRFQQAGHKPVALVGGATGLIGDPSFKAAERKLNTEETVQEWVDKIRKQVAPFLDFDCGENSAIAANNYDWFGNMNVLTFLRDIGKHFSVNQMINKEAVKQRLNREDQGISFTEFSYNLLQGYDFACLNKQYGVVLQIGGSDQWGNITSGIDLTRRLHQNQVFGLTVPLITKADGTKFGKTEGGAVWLDPKKTSPYKFYQFWINTADADVYRFLKFFTFMSIEEINALEEEDKNSGKAPRAQYVLAEQVTRLVHGEEGLQAAKRITECLFSGSLSALSEADFEQLAQDGVPMVEMEKGADLMQALVDSELQPSRGQARKTIASNAITINGEKQSDPEYFFKEEDRLFGRFTLLRRGKKNYCLICWK	**	***		
IC: E. coli TyrRS double variant: position 37 Isoleucine, position 195 Cysteine (protein, UniProt P0AGJ9 2-424, looked up, variant Y37I Q195C) Tyrosine--tRNA ligase: ASSNLIKQLQERGLVAQVTDEEALAERLAQGPIALICGFDPTADSLHLGHLVPLLCLKRFQQAGHKPVALVGGATGLIGDPSFKAAERKLNTEETVQEWVDKIRKQVAPFLDFDCGENSAIAANNYDWFGNMNVLTFLRDIGKHFSVNQMINKEAVKQRLNREDQGISFTEFSYNLLQGYDFACLNKQYGVVLCIGGSDQWGNITSGIDLTRRLHQNQVFGLTVPLITKADGTKFGKTEGGAVWLDPKKTSPYKFYQFWINTADADVYRFLKFFTFMSIEEINALEEEDKNSGKAPRAQYVLAEQVTRLVHGEEGLQAAKRITECLFSGSLSALSEADFEQLAQDGVPMVEMEKGADLMQALVDSELQPSRGQARKTIASNAITINGEKQSDPEYFFKEEDRLFGRFTLLRRGKKNYCLICWK			—	—
195C: E. coli TyrRS variant: position 37 Tyrosine, position 195 Cysteine (protein, UniProt P0AGJ9 2-424, looked up, variant Q195C) Tyrosine--tRNA ligase: ASSNLIKQLQERGLVAQVTDEEALAERLAQGPIALYCGFDPTADSLHLGHLVPLLCLKRFQQAGHKPVALVGGATGLIGDPSFKAAERKLNTEETVQEWVDKIRKQVAPFLDFDCGENSAIAANNYDWFGNMNVLTFLRDIGKHFSVNQMINKEAVKQRLNREDQGISFTEFSYNLLQGYDFACLNKQYGVVLCIGGSDQWGNITSGIDLTRRLHQNQVFGLTVPLITKADGTKFGKTEGGAVWLDPKKTSPYKFYQFWINTADADVYRFLKFFTFMSIEEINALEEEDKNSGKAPRAQYVLAEQVTRLVHGEEGLQAAKRITECLFSGSLSALSEADFEQLAQDGVPMVEMEKGADLMQALVDSELQPSRGQARKTIASNAITINGEKQSDPEYFFKEEDRLFGRFTLLRRGKKNYCLICWK	***	*		
LS: E. coli TyrRS double variant: position 37 Leucine, position 195 Serine (protein, UniProt P0AGJ9 2-424, looked up, variant Y37L Q195S) Tyrosine--tRNA ligase: ASSNLIKQLQERGLVAQVTDEEALAERLAQGPIALLCGFDPTADSLHLGHLVPLLCLKRFQQAGHKPVALVGGATGLIGDPSFKAAERKLNTEETVQEWVDKIRKQVAPFLDFDCGENSAIAANNYDWFGNMNVLTFLRDIGKHFSVNQMINKEAVKQRLNREDQGISFTEFSYNLLQGYDFACLNKQYGVVLSIGGSDQWGNITSGIDLTRRLHQNQVFGLTVPLITKADGTKFGKTEGGAVWLDPKKTSPYKFYQFWINTADADVYRFLKFFTFMSIEEINALEEEDKNSGKAPRAQYVLAEQVTRLVHGEEGLQAAKRITECLFSGSLSALSEADFEQLAQDGVPMVEMEKGADLMQALVDSELQPSRGQARKTIASNAITINGEKQSDPEYFFKEEDRLFGRFTLLRRGKKNYCLICWK			—	—
